Source: patent US20220031857A1

Columns and labels:
[1] = target: recombinant mouse TfR1 (transferrin receptor 1) (mouse) (UniProt Q62351); assay: Octet, mouse TfR1 on anti-His biosensors, analyte 10 nM, PBS pH 6.0
[2] = target: recombinant mouse TfR1 (transferrin receptor 1) (mouse) (UniProt Q62351); assay: Octet, mouse TfR1 on anti-His biosensors, analyte 10 nM, PBS pH 7.2
[3] = target: recombinant mouse TfR1 (transferrin receptor 1) (mouse) (UniProt Q62351); assay: Octet, mouse TfR1 immobilised on biosensors; row buffer (no first antibody), column 8D3

Chain of recombinant mouse TfR1 (transferrin receptor 1) (mouse) (Q62351 89-763 limits assumed): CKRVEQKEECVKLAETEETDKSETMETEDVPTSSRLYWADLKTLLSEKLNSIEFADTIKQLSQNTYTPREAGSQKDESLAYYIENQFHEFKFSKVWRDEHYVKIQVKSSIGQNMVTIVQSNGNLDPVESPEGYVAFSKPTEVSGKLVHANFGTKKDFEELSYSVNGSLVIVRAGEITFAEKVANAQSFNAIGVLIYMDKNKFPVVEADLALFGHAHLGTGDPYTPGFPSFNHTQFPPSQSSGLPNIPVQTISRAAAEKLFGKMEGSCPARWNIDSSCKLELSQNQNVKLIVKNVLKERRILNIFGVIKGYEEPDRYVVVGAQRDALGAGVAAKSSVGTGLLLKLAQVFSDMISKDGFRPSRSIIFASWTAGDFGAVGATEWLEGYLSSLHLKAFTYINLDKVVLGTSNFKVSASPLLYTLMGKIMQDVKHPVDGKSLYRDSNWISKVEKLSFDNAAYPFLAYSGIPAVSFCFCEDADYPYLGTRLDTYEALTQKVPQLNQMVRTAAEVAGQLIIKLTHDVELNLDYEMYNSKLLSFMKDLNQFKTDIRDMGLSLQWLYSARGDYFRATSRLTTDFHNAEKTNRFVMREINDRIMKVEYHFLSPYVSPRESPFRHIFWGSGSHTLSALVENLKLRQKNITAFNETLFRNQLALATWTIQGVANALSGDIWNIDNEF

- Kd [1]: 0.247 nM
- koff [1]: 0.000126 s⁻¹
- kon [1]: 511000 M⁻¹ s⁻¹
- Kd [2]: 0.221 nM
- koff [2]: 0.000131 s⁻¹
- kon [2]: 591000 M⁻¹ s⁻¹
- Octet signal as second antibody after buffer [3]: 0.33
B1: 8D3 monoclonal antibody to mouse TfR (antibody, from another filing, V domains shown)
VH: EVQLVESGGGLVQPGNSLTLSCVASGFTFSNYGMHWIRQAPKKGLEWIAMIYYDSSKMNYADTVKGRFTISRDNSKNTLYLEMNSLRSEDTAMYYCAVPTSHYVVDVWGQGVSVTVSS
VL: DIQMTQSPASLSASLEEIVTITCQASQDIGNWLAWYQQKPGKSPQLLIYGATSLADGVPSRFSGSRSGTQFSLKISRVQVEDIGIYYCLQAYNTPWTFGGGTKLELK
